Article PMC9855186, “Photoautotrophic Growth Rate Enhancement of Synechocystis sp. PCC6803 by Heterologous Production of 2-Oxoglutarate:Ferredoxin Oxidoreductase from Chlorobaculum tepidum” (Biology, 2022)

B1: CtOGOR (2-oxoglutarate:ferredoxin oxidoreductase) (Chlorobaculum tepidum TLS) (protein)
chain 1: MSDTVILNNNDMVISKTNVSVLFAGDSGDGMQLTGTQFANTVAVYGSDLNTFPNFPSEIRPPAGTVAGVSGFQLQFGTTGVYTPGAKFDVMIAMNAAALKANLKNLHHGGIIIADTDGFDAKNLNLAGYGETNNPLEDGTLTDYTVFKIPVISLTRQALADTGLSTKIIDRCKNMFVLGVLYWLYSLPLETTIEALQSKFKNKQDIAEANIKAVKAGYNFGDETEMFSQHGRFCVPPAQKKKGVYRRVTGNEASAIGLAAAAQKAGLELFLGSYPITPASEILQTLAGLKKWGVKTFQAEDEIAGILTSIGAAYGGALAATNTSGPGLALKTEGMGLAVILELPLVIINVMRGGPSTGLPTKPEQSDLLMAMYGRHGEAPMPVIAAMSPVDCFYAAYEAAKIAVEYMTPVLCLTDGYLALSSEPMLVPSPDELASITPMFSPERKADDPPYLPYKRDERCVRPWGIPGTPGLEHRIGGLEKQNETGHVSHDPENHALMTRLRAEKVAKVADIIPDLTIDNGPEKGDLLVLGWGSTYGAIKKAVEQAREGGLDVAHAHLRYINPFPKNLGAMLGNFKKVLIPENNCGQLLSLIRDKFLIEPVGFSKVQGLPFNEMEIEEKITDILKEL
chain 2: MTDTHTCLTAKDFTSNQEPKWCPGCGDFMVLQQLKNAMAELCLKTEEVVVVSGIGCSSRLPYYINTYGVHGIHGRAMAMASGLKVARPDLSVWVGTGDGDALSIGGNHYIHTVRRNLDINVVLFNNEIYGLTKGQYSPTSKVGLRTVTSPTGVVDYPINTIALTLGAGGTFVARVMDRDGKLMKEIFKRAHNHKGTSIVEIYQNCPIFNDGAFRAFSDKERKDDTTLYLEQGQPLVFGANGSKGIYLDGFKPTVIDLEKSGVSKDDLWIHDENDLIKANILSRFFDDPNSTEEFLPRPFGIFYVEDRFTYEQALSAQIDKAQEKGEGTLEELLAGNSTWTIN
notes: heterotetramer (alpha-beta)2, 220 kDa; N-terminal His6-KorA and C-terminal strep-tagged KorB, tags kept; codon-optimised genes; E. coli BL21(DE3); Fe-S clusters and TPP reconstituted
B2: Icd (isocitrate dehydrogenase) (Synechocystis sp. PCC 6803 substr. Kazusa) (protein)
chain: MYEKLQPPSVGSKITFVAGKPVVPNDPIIPYIRGDGTGVDIWPATELVINAAIAKAYGGREEINWFKVYAGDEACELYGTYQIFPEDTLTAIKEYGVAIKGPLTTPVGGGIRSLNVALRQIFDLYTCVRPCRYYPGTPSPHKTPEKLDIIVYRENTEDIYLGIEWAEGTEGAKKLIAYLNDELIPTTPALGKKQIRLDSGIGIKPISKTGSQRLVRRAILHAKRLPKAKQMVTLVHKGNIMKFTEGPFRDWGYELATTEFRAECVTERESWICGNKESNPDLTIEANAHMIDPGYDTLTEEKQAVIKQEVEQVLNSIWESHGNGQWKEKVMVNDRIADSIFQQIQTRPDEYSILATMNLNGDYLSDAAAAVVGGLGMGPGANIGDSAAIFEATHGTAPKHAGLDRINPGSVILSGVMMLEFMGWQEAADLIKKGIGAAIANREVTYDLARLMEPKVDKPLKCSEFAQAIVSHFDD

Experiments:
[1] = substrate: CC(C)(COP(=O)(O)OP(=O)(O)OC[C@H]1O[C@@H](n2cnc3c(N)ncnc32)[C@H](O)[C@@H]1OP(=O)(O)O)[C@@H](O)C(=O)NCCC(=O)NCCS; assay: coupled Fd/FNR assay, NADP+ reduction at A340, Michaelis-Menten fit; type: biochemical, Chlorobaculum tepidum; conditions: decarboxylation, 5 mM 2-oxoglutarate fixed, 0.15 mM NADP+, 0.1 μM FNR, 1 μM Synechocystis Fd (slr1382), 1 mM MgCl2, 1 mM DTT, 1 mM TPP, pH 7.5, 30 °C, anaerobic, kcat per αβ-protomer
From the text: (§1) coupled Fd/FNR assay, NADP+ reduction at A340, Michaelis-Menten fit on CtOGOR (2-oxoglutarate:ferredoxin oxidoreductase)

[2] = substrate: O=C(O)CCC(=O)C(=O)O; assay: as above; type: biochemical, Chlorobaculum tepidum; conditions: decarboxylation, 0.5 mM CoA fixed, 0.15 mM NADP+, 0.1 μM FNR, 1 μM Synechocystis Fd (slr1382), 1 mM MgCl2, 1 mM DTT, 1 mM TPP, pH 7.5, 30 °C, anaerobic, kcat per αβ-protomer
From the text: as §1

[3] = substrate: CC(C)(COP(=O)(O)OP(=O)(O)OC[C@H]1O[C@@H](n2cnc3c(N)ncnc32)[C@H](O)[C@@H]1OP(=O)(O)O)[C@@H](O)C(=O)NCCC(=O)NCCSC(=O)CCC(=O)O; assay: coupled Fd/FNR assay, NADPH decrease at A340, Michaelis-Menten fit; type: biochemical, Chlorobaculum tepidum; conditions: carboxylation, 50 mM sodium bicarbonate fixed, 0.15 mM NADPH, 0.1 μM FNR, 1 μM Synechocystis Fd (slr1382), 1 mM MgCl2, 1 mM DTT, 1 mM TPP, pH 7.5, 30 °C, anaerobic, kcat per αβ-protomer
From the text: coupled Fd/FNR assay, NADPH decrease at A340, Michaelis-Menten fit on CtOGOR (2-oxoglutarate:ferredoxin oxidoreductase)

[4] = substrate: O=C(O)C[C@H](C(=O)O)[C@@H](O)C(=O)O; assay: NADP+ reduction at A340, Michaelis-Menten fit; type: biochemical, Synechocystis sp. PCC 6803; conditions: decarboxylation, 0.15 mM NADP+, 10 mM HEPES pH 8.0, 40 mM MgCl2
[5] = substrate: O=C(O)CCC(=O)C(=O)O; assay: NADPH decrease at A340, Michaelis-Menten fit; type: biochemical, Synechocystis sp. PCC 6803; conditions: carboxylation, 50 mM sodium bicarbonate fixed, 0.15 mM NADPH, 10 mM HEPES pH 8.0, 40 mM MgCl2

Protein	Km [1] [µM]	kcat [1] [s⁻¹]	kcat/Km [1] [M⁻¹ s⁻¹]	Km [2] [µM]	kcat [2] [s⁻¹]	kcat/Km [2] [M⁻¹ s⁻¹]	Km [3] [µM]	kcat [3] [s⁻¹]	kcat/Km [3] [M⁻¹ s⁻¹]	Km [4] [µM]	Km [5] [µM]
B1	42 ± 15	8.1 ± 0.2	192000 ± 2400	1689 ± 92	8.4 ± 0.1	5000 ± 100	24 ± 2	2.6 ± 0.1	110000 ± 3500		
B2										121 ± 13	1003
